Experimental data as given in US8697117B2, “Drug-eluting films” (Ramot at Tel-Aviv University Ltd., priority 2010, dated 2014).
Where “and” joins values, the source holds several entries; their conditions need not be identical. Identical values can stand only once.

Assays:
Type in all cases: physicochemical
[1] = Encapsulation efficiency of the loaded agent in the films
[2] = Morphological characterization of porous films by SEM (mean pore diameter, porosity)
Protocol: The morphology of the porous films (cryogenically fractured surfaces) was observed by scanning electron microscopy (SEM) using a JEOL JSM-6300 microscope at an accelerating voltage of 5 kV. The SEM samples were Au-sputtered prior to observation. The mean pore diameter (n=100 small pores or 50 large pores) and porosity of the observed morphologies were analyzed using the Sigma Scan Pro software, and statistics were calculated using SPSS 10 software. Statistical significance was determined based on ANOVA (Tukey-Kramer). The area occupied by the pores was calculated for each SEM fractograph using Sigma Scan Pro software in order to evaluate the porosity of the samples. Porosity was determined as the area occupied by the pores divided by the total area.

[3] = In vitro drug release from films in PBS at 37° C. (HPLC); conditions: for time at which the drug was almost fully released: antibiotic-loaded 50:50 PDLGA films, O:A 6:1, 2% drug
Protocol: Small films of 1.5 cm by 0.5 cm, were immersed in phosphate buffered saline (PBS) at 37° C. for 70 days in order to determine the various drug release kinetics therefrom in four repetitions. The release studies were conducted in closed glass tubes containing 3.0 ml PBS medium. The medium was removed completely at various time points, and at each sampling time fresh medium was introduced. The medium's drug concentration was determined using Jasco High Performance Liquid Chromatography (HPLC) with a UV 2075 plus detector and a reverse phase column kept at 25° C.

[4] = In vitro HRP release from porous films in PBS at 37° C. (micro BCA)
Protocol: Small 1.5 cm by 2.0 cm films (four samples) were immersed in phosphate-buffered saline (PBS) at 37° C. for 28 days in order to determine the HRP release kinetics from these structures. The release studies were conducted in closed glass tubes containing 2.0 ml PBS medium. The medium was removed (completely) periodically, at each sampling time, and fresh medium was introduced. Sampling was carried out at 0.5, 1, 2, 3, 7, 14, 21 and 28 days.
The HRP concentration of each medium sample was determined using the micro BCA assay method, by measuring absorbance at 562 nm, using a SpectraMax 340 PC^384 plate reader spectrophotometer. Cumulative HRP release profiles were determined relative to the initial amount of HRP in the composite fibers (HRP released during the incubation period+the residue remaining in the fibers). Four repetitions were performed for each sample, and the results are presented as means±one standard deviation.

[5] = drug-loaded 50:50 PDLGA 17.5% w/v film, no surfactant, 28 000 rpm
[6] = drug-loaded film, BSA (1%), 14 000 rpm
[7] = drug-loaded film, BSA (1%), 28 000 rpm
[8] = drug-loaded film, no surfactant, 14 000 rpm
[9] = as reference formulation A but 0.5% w/w HRP
[10] = as reference formulation A but 15% w/v polymer
[11] = as reference formulation A but 25% w/v polymer
[12] = as reference formulation A but 75/25 PDLGA
[13] = as reference formulation A but O:A 2:1
[14] = as reference formulation A but O:A 8:1
[15] = as reference formulation A but polymer initial MW 50 kDa
[16] = as reference formulation A but polymer initial MW 185 kDa
[17] = HRP film, reference formulation A (1.0% w/w HRP, 17.5% w/v, O:A 4:1, 50/50, 83 kDa)
[18] = as reference formulation A but 2.0% w/w HRP
[19] = as reference formulation A but 20% w/v polymer
[20] = as reference formulation A but O:A 6:1
[21] = drug-loaded film, BSA (5%), 28 000 rpm
[22] = drug-loaded film, BSA (5%), 28 000 rpm, listed as paclitaxel
[23] = 5% w/v BSA film versus film with no surfactant, 28000 rpm

CC(=O)O.NCc1ccc(S(N)(=O)=O)cc1 [Mafenide acetate, 4-Aminomethylbenzenesulfonamide acetate salt]
Encapsulation efficiency [1, 5]: 71.3 ± 0.5% | Encapsulation efficiency [1, 6]: 74.6 ± 4.2% | Encapsulation efficiency [1, 7]: 78.1 ± 2.1% | Encapsulation efficiency [1, 8]: 69.6 ± 1.0% | Mean pore diameter [2, 5]: 1.1 ± 0.3 μm | Porosity [2, 5]: 88.1 ± 1.2% | Mean pore diameter [2, 6]: 1.9 ± 0.5 μm | Porosity [2, 6]: 83.7 ± 2.4% | Mean pore diameter [2, 7]: 0.8 ± 0.2 μm | Porosity [2, 7]: 81.7 ± 2.5% | Mean pore diameter [2, 8]: 2.2 ± 0.9 μm | Porosity [2, 8]: 81.9 ± 2.6% | time at which the drug was almost fully released [3]: 21 days

Sorbitan monooleate [Span 80]
Mean pore diameter ± SD ([2]; film from reference formulation B with 5% of the named surfactant, 28000 rpm for 120 seconds): 1.5 μm and 1.5 ± 0.4 μm

CC(C)(O/N=C(\C(=O)N[C@@H]1C(=O)N2C(C(=O)[O-])=C(C[n+]3ccccc3)CS[C@H]12)c1csc(N)n1)C(=O)O [Ceftazidime hydrate, ceftazidime hydrate]
Encapsulation efficiency [1, 5]: 37.0 ± 1.9% | Encapsulation efficiency [1, 6]: 58.4 ± 2.3% | Encapsulation efficiency [1, 7]: 50.7 ± 0.5% | Encapsulation efficiency [1, 8]: 41.7 ± 1.6% | Mean pore diameter [2, 5]: 1.1 ± 0.4 μm | Porosity [2, 5]: 77.6 ± 2.2% | Mean pore diameter [2, 6]: 1.5 ± 0.5 μm | Porosity [2, 6]: 75.4 ± 0.5% | Mean pore diameter [2, 7]: 0.7 ± 0.2 μm | Porosity [2, 7]: 75.6 ± 0.5% | Mean pore diameter [2, 8]: 1.8 ± 0.7 μm | Porosity [2, 8]: 80.5 ± 3.0% | time at which the drug was almost fully released [3]: ≤ 3 days

HRP: Horseradish peroxidase, 44 kDa; served as a surfactant and a protein-type biomolecule model
Encapsulation efficiency ([1]; HRP film, 0.5 w/w HRP): 89% | Encapsulation efficiency ([1]; HRP film, 1 w/w HRP, 17.5% w/v polymer (reference formulation A)): 87% | Encapsulation efficiency ([1]; HRP film, 2 w/w HRP): 86% | Encapsulation efficiency ([1]; HRP film, 15.5% w/v polymer): 90% | Encapsulation efficiency ([1]; HRP film, 25% w/v polymer): 85% | HRP burst release [4, 9]: 37% | HRP burst release ([4]; as reference formulation A but 2% w/w HRP): 74% | HRP burst release [4, 10]: 65% | HRP burst release [4, 11]: 47% | HRP burst release rate, 75/25 PDLGA compared to 50/50 PDLGA films [4, 12]: little difference in the burst release rates | HRP burst release [4, 13]: 58% | HRP burst release [4, 14]: 48% | HRP burst release [4, 15]: 73% | HRP burst release [4, 16]: 42% | HRP burst release ([4]; reference formulation A: 50/50 PDLGA 83 kDa, 17.5% w/v polymer, 1% w/w HRP, O:A 4:1): 57% | Mean large pore diameter [2, 17]: 17.1 ± 2.7 μm | Mean small pore diameter [2, 17]: 4.3 ± 0.8 μm | Porosity [2, 17]: 86.9 ± 2.6% | Mean large pore diameter [2, 9]: 16.0 ± 1.6 μm | Mean small pore diameter [2, 9]: 4.5 ± 1.3 μm | Porosity [2, 9]: 88.6 ± 1.4% | Mean large pore diameter [2, 18]: 16.0 ± 1.4 μm | Mean small pore diameter [2, 18]: 3.9 ± 0.4 μm | Porosity [2, 18]: 85.4 ± 2.2% | Mean small pore diameter [2, 10]: 5.5 μm and 5.5 ± 1.1 μm | Porosity [2, 10]: 88.2 ± 2.9% | Mean large pore diameter [2, 19]: 16.1 ± 2.3 μm | Mean small pore diameter [2, 19]: 3.2 ± 0.5 μm | Porosity [2, 19]: 85.8 ± 2.9% | Mean large pore diameter [2, 11]: 17.1 ± 1.9 μm | Mean small pore diameter [2, 11]: 1.5 μm and 1.5 ± 0.2 μm | Porosity [2, 11]: 82.2 ± 3.3% | Mean large pore diameter [2, 12]: 16.6 ± 3.6 μm | Mean small pore diameter [2, 12]: 5.9 ± 0.8 μm | Porosity [2, 12]: 89.2 ± 0.8% | Mean large pore diameter [2, 13]: 17.3 ± 3.3 μm | Mean small pore diameter [2, 13]: 4.7 μm and 4.7 ± 1.0 μm | Porosity [2, 13]: 92.5% and 92.5 ± 1.0% | Mean large pore diameter [2, 20]: 18.0 ± 3.8 μm | Mean small pore diameter [2, 20]: 3.0 ± 0.6 μm | Porosity [2, 20]: 82.1 ± 1.6% | Mean large pore diameter [2, 14]: 17.2 ± 2.1 μm | Mean small pore diameter [2, 14]: 2.3 μm and 2.3 ± 0.4 μm | Porosity [2, 14]: 76.7% and 76.7 ± 2.5% | Mean small pore diameter [2, 15]: 7.1 μm and 7.1 ± 1.4 μm | Porosity [2, 15]: 87.7 ± 2.0% | Mean large pore diameter [2, 16]: 16.4 ± 2.8 μm | Mean small pore diameter [2, 16]: 2.5 μm and 2.5 ± 0.6 μm | Porosity [2, 16]: 85.3 ± 1.2%

CC(=O)O[C@H]1C(=O)[C@@]2(C)[C@H]([C@H](OC(=O)c3ccccc3)[C@]3(O)C[C@H](OC(=O)[C@H](O)[C@@H](NC(=O)c4ccccc4)c4ccccc4)C(C)=C1C3(C)C)[C@]1(OC(C)=O)CO[C@@H]1C[C@@H]2O [Paclitaxel]
Encapsulation efficiency [1, 5]: 52.8 ± 0.6% | Encapsulation efficiency ([1]; drug-loaded 50:50 PDLGA 17.5% w/v film, no surfactant, 28 000 rpm, listed as paclitaxel): 53% | Encapsulation efficiency [1, 21]: 35.6 ± 2.9% | Encapsulation efficiency [1, 22]: 35% | Mean pore diameter [2, 5]: 2.6 ± 0.8 μm | Porosity [2, 5]: 81.5 ± 3.8% | Mean pore diameter [2, 21]: 0.6 ± 0.1 μm | Porosity [2, 21]: 74.8 ± 3.2% | Mean pore diameter [2, 22]: 0.6 μm | effect of BSA (fine nanostructure) on burst effect [3, 23]: did not significantly affect | effect of BSA (fine nanostructure) on release rate [3, 23]: only a slight increase
